Data reported in US6855515.

T1: PMS1, P54277
T1 chain: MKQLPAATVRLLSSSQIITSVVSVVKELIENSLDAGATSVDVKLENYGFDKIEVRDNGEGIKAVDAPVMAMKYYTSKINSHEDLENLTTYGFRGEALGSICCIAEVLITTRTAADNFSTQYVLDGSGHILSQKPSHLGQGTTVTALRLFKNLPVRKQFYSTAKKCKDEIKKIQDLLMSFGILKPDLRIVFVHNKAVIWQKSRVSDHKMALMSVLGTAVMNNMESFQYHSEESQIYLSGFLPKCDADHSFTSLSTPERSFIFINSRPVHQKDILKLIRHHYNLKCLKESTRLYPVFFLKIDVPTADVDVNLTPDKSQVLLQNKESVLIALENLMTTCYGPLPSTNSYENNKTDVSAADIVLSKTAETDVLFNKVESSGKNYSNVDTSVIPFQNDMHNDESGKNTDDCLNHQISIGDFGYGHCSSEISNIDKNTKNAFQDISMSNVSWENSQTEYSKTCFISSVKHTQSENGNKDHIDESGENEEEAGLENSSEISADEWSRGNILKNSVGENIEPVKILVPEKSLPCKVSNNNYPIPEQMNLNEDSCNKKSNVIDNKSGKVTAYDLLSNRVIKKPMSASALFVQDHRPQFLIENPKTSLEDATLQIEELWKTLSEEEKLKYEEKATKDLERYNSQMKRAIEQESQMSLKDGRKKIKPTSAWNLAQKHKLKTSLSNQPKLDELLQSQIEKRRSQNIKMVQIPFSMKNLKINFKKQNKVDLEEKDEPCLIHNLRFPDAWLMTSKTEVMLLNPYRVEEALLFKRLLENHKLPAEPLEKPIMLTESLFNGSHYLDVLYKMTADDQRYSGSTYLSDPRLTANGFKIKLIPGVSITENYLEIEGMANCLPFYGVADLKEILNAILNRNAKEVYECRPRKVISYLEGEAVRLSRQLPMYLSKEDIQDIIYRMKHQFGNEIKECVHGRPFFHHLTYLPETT

T2: PMS2, P54278
T2 chain: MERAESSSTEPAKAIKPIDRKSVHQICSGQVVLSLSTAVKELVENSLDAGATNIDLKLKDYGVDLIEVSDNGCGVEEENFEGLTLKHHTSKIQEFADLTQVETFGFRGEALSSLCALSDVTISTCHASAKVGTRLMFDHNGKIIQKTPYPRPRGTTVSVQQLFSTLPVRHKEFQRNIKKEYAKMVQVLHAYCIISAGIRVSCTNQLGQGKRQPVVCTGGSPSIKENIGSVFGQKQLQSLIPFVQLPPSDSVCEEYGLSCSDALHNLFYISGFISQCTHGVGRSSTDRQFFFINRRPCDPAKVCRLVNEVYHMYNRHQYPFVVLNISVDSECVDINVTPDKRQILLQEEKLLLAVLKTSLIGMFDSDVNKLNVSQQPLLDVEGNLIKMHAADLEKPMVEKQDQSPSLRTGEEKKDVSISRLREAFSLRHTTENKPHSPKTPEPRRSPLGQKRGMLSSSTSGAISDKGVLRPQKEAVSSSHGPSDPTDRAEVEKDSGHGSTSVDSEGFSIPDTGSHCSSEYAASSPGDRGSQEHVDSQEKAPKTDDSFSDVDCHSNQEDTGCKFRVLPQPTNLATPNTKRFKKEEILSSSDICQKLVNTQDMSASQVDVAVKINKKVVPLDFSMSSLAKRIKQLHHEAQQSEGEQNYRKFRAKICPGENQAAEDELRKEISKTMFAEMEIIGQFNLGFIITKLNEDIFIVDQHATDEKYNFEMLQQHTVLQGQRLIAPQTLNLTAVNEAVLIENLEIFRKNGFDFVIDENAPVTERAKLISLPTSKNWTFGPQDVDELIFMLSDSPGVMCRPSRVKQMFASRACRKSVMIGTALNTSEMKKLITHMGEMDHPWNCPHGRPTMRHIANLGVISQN

T3: SRP-72, O76094
T3 chain: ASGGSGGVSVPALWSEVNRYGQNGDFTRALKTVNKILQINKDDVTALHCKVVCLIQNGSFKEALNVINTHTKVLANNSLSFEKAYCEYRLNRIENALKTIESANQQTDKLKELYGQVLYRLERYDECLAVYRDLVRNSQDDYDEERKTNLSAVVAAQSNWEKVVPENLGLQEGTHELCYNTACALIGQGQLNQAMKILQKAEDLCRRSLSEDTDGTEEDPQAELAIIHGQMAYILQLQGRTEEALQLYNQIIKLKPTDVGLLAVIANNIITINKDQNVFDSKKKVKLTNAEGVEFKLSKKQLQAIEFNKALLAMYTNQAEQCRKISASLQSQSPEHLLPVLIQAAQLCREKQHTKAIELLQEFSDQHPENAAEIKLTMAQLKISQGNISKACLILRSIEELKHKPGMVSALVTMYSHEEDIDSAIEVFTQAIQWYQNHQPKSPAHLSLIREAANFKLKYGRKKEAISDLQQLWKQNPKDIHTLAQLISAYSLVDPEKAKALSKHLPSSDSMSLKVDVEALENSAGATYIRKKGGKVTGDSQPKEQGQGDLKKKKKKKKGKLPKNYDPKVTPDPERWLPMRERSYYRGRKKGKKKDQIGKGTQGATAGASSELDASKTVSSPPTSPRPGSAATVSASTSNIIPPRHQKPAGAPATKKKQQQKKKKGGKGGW

T4: Topoisomerase I, P11387
T4 chain: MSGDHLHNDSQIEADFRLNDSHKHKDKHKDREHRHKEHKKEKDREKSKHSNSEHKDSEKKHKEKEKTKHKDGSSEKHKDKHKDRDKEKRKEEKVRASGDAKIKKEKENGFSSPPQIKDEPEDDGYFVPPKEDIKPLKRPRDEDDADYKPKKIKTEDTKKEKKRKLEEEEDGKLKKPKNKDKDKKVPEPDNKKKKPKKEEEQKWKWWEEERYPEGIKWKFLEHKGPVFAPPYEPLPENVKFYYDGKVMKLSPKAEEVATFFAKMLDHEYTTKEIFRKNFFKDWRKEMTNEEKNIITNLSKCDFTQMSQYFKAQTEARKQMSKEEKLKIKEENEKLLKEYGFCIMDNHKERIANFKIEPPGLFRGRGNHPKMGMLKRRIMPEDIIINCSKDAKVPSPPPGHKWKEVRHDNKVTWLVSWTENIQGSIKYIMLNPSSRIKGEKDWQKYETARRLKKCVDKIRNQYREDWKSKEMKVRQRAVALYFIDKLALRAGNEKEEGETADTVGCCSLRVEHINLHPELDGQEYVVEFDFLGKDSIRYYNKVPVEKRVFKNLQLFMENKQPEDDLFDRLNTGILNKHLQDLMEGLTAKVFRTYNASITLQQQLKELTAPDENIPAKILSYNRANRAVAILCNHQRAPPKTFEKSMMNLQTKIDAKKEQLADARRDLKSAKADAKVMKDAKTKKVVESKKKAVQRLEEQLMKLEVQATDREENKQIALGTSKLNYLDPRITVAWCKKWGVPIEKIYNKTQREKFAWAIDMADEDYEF

T5: Ac-DEVD-CHO, N-(N-Ac-Asp-Glu-Val)-3-amino-4-oxobutanoic acid
T5 chain: DEVD

B1: caspase-8 (protein)
chain 1: SESQTLDKVYQMKSKPRGYCLIINNHNFAKAREKVPKLHSIRDRNGTHLDAGALTTTFEELHFEIKPHDDCTVEQIYEILKIYQLMDHSNMDCFICCILSHGDKGIIYGTDGQEAPIYELTSQFTGLKCPSLAGKPKVFFIQACQGDNYQKGIPVETD
chain 2: LSSPQTRYIPDEADFLLGMATVNNCVSYRNPAEGTWYIQSLCQSLRERCPRGDDILTILTEVNYEVSNKDDKKNMGKQMPQPTFTLRKKLVFPSD
B2: caspase-3 (protein)
chain: SGISLDNSYKMDYPEMGLCIIINNKNFHKSTGMTSRSGTDVDAANLRETFRNLKYEVRNKNDLTREEIVELMRDVSKEDHSKRSSFVCVLLSHGEEGIIFGTNGPVDLKKITNFFRGDRCRSLTGKPKLFIIQACRGTELDCGIETDSGVDDDMACHKIPVEADFLYAYSTAPGYYSWRNSKDGSWFIQSLCAMLKQYADKLEFMHILTRVNRKVATEFESFSFDATFHAKKQIPCIVSMLTKELYFYH

Columns and labels:
[1] = target: poly(ADP-ribose) polymerase
[2] = target: RNA polymerase II large subunit, P24928
PMS1, P54277 = target: T1, PMS1, P54277
PMS2, P54278 = target: T2, PMS2, P54278
[3] = target: nuclear mitotic apparatus protein
Chain of nuclear mitotic apparatus protein (chain, as listed by the source): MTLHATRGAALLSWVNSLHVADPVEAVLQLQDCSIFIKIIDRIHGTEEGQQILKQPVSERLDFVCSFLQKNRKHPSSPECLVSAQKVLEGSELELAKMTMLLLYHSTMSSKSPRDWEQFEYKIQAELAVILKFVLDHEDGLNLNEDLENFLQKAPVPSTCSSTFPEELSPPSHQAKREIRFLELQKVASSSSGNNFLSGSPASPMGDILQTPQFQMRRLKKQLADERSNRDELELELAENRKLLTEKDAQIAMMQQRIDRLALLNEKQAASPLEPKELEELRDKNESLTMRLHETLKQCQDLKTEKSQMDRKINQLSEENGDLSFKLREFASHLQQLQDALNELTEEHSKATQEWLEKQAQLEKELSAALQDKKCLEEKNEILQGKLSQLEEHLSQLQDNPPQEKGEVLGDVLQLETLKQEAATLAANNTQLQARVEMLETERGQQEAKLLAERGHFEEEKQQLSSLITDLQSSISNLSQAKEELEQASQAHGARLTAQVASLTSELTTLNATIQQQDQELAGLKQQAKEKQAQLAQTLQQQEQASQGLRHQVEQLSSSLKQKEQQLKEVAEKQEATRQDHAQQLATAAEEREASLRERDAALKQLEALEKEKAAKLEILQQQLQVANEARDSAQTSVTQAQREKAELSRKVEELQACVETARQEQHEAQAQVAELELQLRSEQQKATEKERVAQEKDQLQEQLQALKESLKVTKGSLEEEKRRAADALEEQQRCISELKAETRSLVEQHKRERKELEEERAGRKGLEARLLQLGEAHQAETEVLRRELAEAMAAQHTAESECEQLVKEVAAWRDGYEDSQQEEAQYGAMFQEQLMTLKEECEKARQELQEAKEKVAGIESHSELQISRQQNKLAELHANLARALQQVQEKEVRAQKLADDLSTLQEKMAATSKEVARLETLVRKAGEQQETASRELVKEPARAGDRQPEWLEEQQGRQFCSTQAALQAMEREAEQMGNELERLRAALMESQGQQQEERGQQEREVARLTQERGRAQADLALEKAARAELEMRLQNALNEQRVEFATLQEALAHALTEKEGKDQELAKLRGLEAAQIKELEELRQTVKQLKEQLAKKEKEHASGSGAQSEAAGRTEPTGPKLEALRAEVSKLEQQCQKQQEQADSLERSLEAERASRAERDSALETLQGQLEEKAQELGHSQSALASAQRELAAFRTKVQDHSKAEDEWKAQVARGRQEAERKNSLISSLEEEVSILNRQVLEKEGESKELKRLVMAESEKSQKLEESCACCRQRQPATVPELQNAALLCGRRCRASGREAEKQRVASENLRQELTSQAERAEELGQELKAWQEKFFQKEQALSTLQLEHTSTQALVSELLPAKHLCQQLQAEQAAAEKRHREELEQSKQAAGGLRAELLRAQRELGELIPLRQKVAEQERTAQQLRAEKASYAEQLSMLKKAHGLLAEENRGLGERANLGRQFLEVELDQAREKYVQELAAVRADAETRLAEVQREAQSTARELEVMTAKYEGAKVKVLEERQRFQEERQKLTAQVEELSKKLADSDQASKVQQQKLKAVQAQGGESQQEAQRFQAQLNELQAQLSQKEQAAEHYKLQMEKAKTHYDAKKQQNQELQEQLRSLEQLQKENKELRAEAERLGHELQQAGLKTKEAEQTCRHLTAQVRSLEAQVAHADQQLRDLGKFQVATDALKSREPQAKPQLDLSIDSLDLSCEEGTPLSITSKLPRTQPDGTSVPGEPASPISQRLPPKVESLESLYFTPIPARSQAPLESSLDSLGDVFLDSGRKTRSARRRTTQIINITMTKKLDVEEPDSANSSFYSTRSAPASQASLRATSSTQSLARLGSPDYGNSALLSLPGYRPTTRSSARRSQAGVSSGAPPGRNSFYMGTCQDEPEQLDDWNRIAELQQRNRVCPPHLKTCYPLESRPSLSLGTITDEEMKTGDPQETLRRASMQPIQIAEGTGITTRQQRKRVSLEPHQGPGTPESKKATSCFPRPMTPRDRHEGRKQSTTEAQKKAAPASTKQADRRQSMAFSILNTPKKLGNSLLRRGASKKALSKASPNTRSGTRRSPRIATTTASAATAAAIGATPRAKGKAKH

SRP-72, O76094 = target: T3, SRP-72, O76094
Topoisomerase I, P11387 = target: T4, Topoisomerase I, P11387
[4] = target: T5, Ac-DEVD-CHO, …

Chain of Ku-70, P12956 (P12956 2-609): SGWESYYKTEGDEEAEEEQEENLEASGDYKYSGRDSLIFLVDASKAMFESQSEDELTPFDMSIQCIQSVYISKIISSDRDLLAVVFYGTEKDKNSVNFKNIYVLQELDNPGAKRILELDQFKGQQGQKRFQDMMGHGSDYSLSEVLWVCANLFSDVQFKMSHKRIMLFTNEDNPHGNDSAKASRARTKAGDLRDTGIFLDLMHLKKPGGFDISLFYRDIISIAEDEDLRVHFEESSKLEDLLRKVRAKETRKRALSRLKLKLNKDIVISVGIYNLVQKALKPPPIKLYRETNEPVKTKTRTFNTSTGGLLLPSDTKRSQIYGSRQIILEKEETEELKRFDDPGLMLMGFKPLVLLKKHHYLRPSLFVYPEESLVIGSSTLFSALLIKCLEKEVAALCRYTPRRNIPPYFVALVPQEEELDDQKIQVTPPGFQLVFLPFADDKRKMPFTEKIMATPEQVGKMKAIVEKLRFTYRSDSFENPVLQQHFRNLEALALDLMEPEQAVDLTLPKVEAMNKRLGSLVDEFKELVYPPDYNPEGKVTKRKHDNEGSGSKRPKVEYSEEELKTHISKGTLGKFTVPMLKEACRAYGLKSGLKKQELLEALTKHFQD
Chain of U1-70 kDa, P08621 (P08621 whole entry, the tested form may be a part): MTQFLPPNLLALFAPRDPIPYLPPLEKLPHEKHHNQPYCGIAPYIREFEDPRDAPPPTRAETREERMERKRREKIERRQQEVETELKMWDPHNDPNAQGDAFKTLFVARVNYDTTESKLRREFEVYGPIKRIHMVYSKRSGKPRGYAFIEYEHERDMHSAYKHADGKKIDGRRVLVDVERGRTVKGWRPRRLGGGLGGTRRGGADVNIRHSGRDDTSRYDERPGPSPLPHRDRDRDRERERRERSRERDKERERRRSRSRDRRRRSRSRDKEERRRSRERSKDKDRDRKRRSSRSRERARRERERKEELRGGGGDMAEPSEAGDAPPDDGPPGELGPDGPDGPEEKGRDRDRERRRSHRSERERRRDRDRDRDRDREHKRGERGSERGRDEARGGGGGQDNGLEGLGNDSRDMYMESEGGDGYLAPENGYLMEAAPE

Protein | cleavage in iodoacetamide-treated HeLa lysate with 50 nM caspase-8 (Ku-70, P12956) | cleavage in iodoacetamide-treated HeLa lysate with 50 nM caspase-8 [1] | cleavage in iodoacetamide-treated HeLa lysate with 50 nM caspase-8 [2] | cleavage of radiolabelled IvTT protein (PMS1, P54277) | cleavage of radiolabelled IvTT protein (PMS2, P54278) | cleavage in iodoacetamide-treated HeLa lysate with 50 nM caspase-8 (Mi-2) | cleavage in iodoacetamide-treated HeLa lysate with 50 nM caspase-8 [3] | cleavage in iodoacetamide-treated HeLa lysate with 50 nM caspase-8 (Ki-67, P46013) | cleavage in iodoacetamide-treated HeLa lysate with 50 nM caspase-8 (SRP-72, O76094) | cleavage in iodoacetamide-treated HeLa lysate with 50 nM caspase-8 (U1-70 kDa, P08621) | cleavage in iodoacetamide-treated HeLa lysate with 50 nM caspase-8 (Topoisomerase I, P11387) | kcat/Km [1] | kcat/Km [3] | generation of caspase-3 substrate fragments in HeLa lysate, immunoblotting [4]
B1 | No cleavage | No cleavage | No cleavage | also not cleaved by purified caspase-8 | also not cleaved by purified caspase-8 | No cleavage | No cleavage | No cleavage | No cleavage | No cleavage | No cleavage |  |  | 
B2 |  |  |  |  |  |  |  |  |  |  |  | 5e+06 M⁻¹ s⁻¹ | 500000 M⁻¹ s⁻¹ | entirely abolished by 100 nM Ac-DEVD-CHO
